Biological target: Human STIM1, N-terminally ECFP-tagged, Q13586-1
Assay: FRET microscopy (Eapp) in cells
Settings: read off a plot

| response (+TG (1 μM), +UV, n = 9, parent: est. 0.11) [Eapp] | response (+TG (1 μM), -UV, n = 9, parent: est. 0.11) [Eapp] | response (-TG, +UV, n = 9, parent: est. 0.010) [Eapp] | response (-TG, -UV, n = 9, parent: est. 0.008) [Eapp] | response (+TG (1 μM), +UV, n = 8) [Eapp] | response (+TG (1 μM), -UV, n = 8) [Eapp] | response (-TG, +UV, n = 8) [Eapp] | response (-TG, -UV, n = 8) [Eapp] | Substance |
| --- | --- | --- | --- | --- | --- | --- | --- | --- |
| 0.004 | 0.002 | 0.003 | 0.006 | – | – | – | – | Orai1 A137Bpa, C-terminally YFP-labelled (from UniProt Q96D31-1) L273D |
| – | – | – | – | 0.11 | 0.11 | 0.01 | 0.008 | Human Orai1 wild-type, C-terminally YFP-labelled (from UniProt Q96D31-1) A137Bpa |

From article PMC9995687
